This test has as its target T1, 6xHis tagged BCL-xL (UniProt Q07817-1 2-212).
T1 construct: BCL-xL; The cloning section gives BCL-xL only an N-terminal ULP1-cleavable SMT3 tag; also called self-made 6×His tagged BCL-xL; WT BCL-xL; source: self-made; E. coli BL21 (DE3) codon plus
Briefly: AlphaScreen or HTRF; AlphaScreen displacement binding assay: Biotin-Bim or Biotin-Bad (15 nM for WT, 50 nM for mutants), 6xHis BCL-2 (25 nM WT, 50 nM mutants) or BCL-xL (10 nM WT, 50 nM mutants), compounds (753b, WH244) as displacers; anti-6xHis acceptor and streptavidin donor beads; 25 mM HEPES pH 7.5, 150 mM NaCl, 0.1% BSA, 0.005% tween 20; room temperature. To be noted: both partners purified.

No end group written: not given here. *: point of attachment. Biotin = O=C1N[C@H]2[C@H](CS[C@H]2CCCCC(=O)*)N1

T1 sequence (Q07817 2-212): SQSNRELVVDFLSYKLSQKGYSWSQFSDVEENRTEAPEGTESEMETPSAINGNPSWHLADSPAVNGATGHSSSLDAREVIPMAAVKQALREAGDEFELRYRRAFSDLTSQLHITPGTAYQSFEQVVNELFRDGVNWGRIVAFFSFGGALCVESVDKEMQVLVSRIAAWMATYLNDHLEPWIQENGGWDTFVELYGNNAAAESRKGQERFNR

B1: Biotin-tagged Bad (peptide)
peptide: Biotin-LWAAQRYGRELRRMSDEFEGSFKGL
notes: Bad peptide (BH3 stretch); also called Biotin-[residues removed]
As for B1, the binding result was “binds”.

(Values after publication PMC10979003 (Nature Communications, 2024).)
